Measurements from publication PMC5999394, “Design principles of a microtubule polymerase” (eLife, 2018).

What was measured:
[1] = target: wild-type yeast microtubules (polymerized wild-type yeast αβ-tubulin) (S. cerevisiae) (UniProt P09733); assay: TIRF microscopy, fluorescence intensity of the Stu2-eGFP spot on the growing microtubule end; end intensity dynamic assay; 5-300 nM Stu2-eGFP (titration, hyperbolic fit; apparent) or 200 nM variant; 0.8 μM wild-type yeast tubulin; 30°C
[2] = target: T1, wild-type yeast microtubules (polymerized wild-type yeast αβ-tubulin) (S. cerevisiae, UniProt P09733 1-447; P02557 1-457); assay: single-molecule TIRF microscopy, residence time on the growing microtubule end; 5 nM Stu2-eGFP variant with 1-1.5 µM unlabeled wild-type yeast tubulin; 100 ms streaming; one-phase exponential fit of the dwell times; 30°C; conditions: both partners purified
T1 construct: Tub1p (yeast α-tubulin), S. cerevisiae; Tub2p (yeast β-tubulin), S. cerevisiae; Polymer of m2; also called microtubule lattice; microtubule end

[3] = target: T1, wild-type yeast microtubules …; assay: TIRF microscopy, fluorescence intensity of the Stu2-eGFP spot on the growing microtubule end; end intensity dynamic assay; 5-300 nM Stu2-eGFP (titration, hyperbolic fit; apparent) or 200 nM variant; 0.8 μM wild-type yeast tubulin; 30°C; conditions: both partners purified
[4] = target: T1, wild-type yeast microtubules …; assay: TIRF microscopy of Stu2-eGFP on dynamic microtubules (kymographs); axoneme-seeded unlabeled dynamic yeast microtubules on the cover slip; Stu2-eGFP variant (100-200 nM) with 0.5-0.8 μM unpolymerized yeast tubulin in imaging buffer (1X PEM, 50 µM GTP, 0.1 mg/mL BSA, antifade); 30°C; conditions: both partners purified

T1 sequence (P09733 whole entry, chain 1 of 2): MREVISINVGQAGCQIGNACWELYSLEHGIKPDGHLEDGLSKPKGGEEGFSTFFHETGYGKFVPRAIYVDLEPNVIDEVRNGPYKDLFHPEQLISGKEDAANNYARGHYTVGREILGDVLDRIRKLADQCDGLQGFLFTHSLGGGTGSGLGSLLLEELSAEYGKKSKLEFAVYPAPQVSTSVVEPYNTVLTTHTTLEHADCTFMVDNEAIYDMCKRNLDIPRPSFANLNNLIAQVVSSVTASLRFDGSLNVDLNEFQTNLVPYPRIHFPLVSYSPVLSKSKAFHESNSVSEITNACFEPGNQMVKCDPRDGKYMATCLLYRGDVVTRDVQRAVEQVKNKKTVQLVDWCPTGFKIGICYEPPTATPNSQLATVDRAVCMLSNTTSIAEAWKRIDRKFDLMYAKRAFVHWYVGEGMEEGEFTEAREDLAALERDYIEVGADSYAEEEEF
T1 sequence (P02557 whole entry, chain 2 of 2): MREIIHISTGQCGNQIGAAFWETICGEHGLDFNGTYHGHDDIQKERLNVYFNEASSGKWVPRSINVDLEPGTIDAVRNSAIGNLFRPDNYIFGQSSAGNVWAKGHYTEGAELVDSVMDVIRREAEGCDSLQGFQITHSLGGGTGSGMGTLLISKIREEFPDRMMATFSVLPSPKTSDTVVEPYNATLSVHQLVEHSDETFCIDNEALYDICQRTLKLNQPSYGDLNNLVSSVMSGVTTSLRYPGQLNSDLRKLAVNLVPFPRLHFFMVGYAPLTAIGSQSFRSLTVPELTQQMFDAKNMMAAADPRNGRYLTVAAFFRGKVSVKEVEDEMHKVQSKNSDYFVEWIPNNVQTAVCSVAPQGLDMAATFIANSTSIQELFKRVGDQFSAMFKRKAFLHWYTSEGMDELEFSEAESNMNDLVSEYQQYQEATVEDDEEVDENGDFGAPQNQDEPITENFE
wild-type yeast microtubules (polymerized wild-type yeast αβ-tubulin) (S. cerevisiae), sequence (P09733 whole entry, chain 1 of 2): as the sequence (P09733 whole entry, chain 1 of 2) above
wild-type yeast microtubules (polymerized wild-type yeast αβ-tubulin) (S. cerevisiae), sequence (P02557 whole entry, chain 2 of 2, further chain): as the sequence (P02557 whole entry, chain 2 of 2) above

Row | Molecule | relative amount of polymerase on the microtubule end (wild type = one) (relative to wild type) [1] | characteristic residence time on the growing microtubule end [2] [s] | relative amount of polymerase on the microtubule end (wild type = one) [3] | binding result [4]
1 | Stu2(TOG2-TOG2)-eGFP (from UniProt P46675 1-888) | 1 | – | – | –
2 | Stu2(TOG1*-TOG2)-eGFP (R200A) (natural protein, S. cerevisiae, UniProt P46675 1-888, looked up, Stu2, S. cerevisiae, fully dimeric (888) background; also called TOG1* (R200A); source: E. coli Arctic Express, purified (His60 Superflow, Strep-Tactin); not shown: eGFP, C-terminal, kept) MSGEEEVDYTTLPLEERLTYKLWKARLEAYKELNQLFRNSVGDISRDDNIQIYWRDPTLFAQYITDSNVVAQEQAIVALNSLIDAFASSSLKNAHNITLISTWTPLLVEKGLTSSRATTKTQSMSCILSLCGLDTSITQSVELVIPFFEKKLPKLIAAAANCVYELMAAFGLTNVNVQTFLPELLKHVPQLAGHGDRNVASQTMNLIVEIYKVTGNNSDLLEEILFKKLKPIQVKDLHKLFAKVGDEPSSSKMLFEWEKRELEKKRSQEEEARKRKSILSNDEGEYQIDKDGDTLMGMETDMPPSKQQSGVQIDTFSMLPEETILDKLPKDFQERITSSKWKDRVEALEEFWDSVLSQTKKLKSTSQNYSNLLGIYGHIIQKDANIQAVALAAQSVELICDKLKTPGFSKDYVSLVFTPLLDRTKEKKPSVIEAIRKALLTICKYYDPLASSGRNEDMLKDILEHMKHKTPQIRMECTQLFNASMKEEKDGYSTLQRYLKDEVVPIVIQIVNDTQPAIRTIGFESFAILIKIFGMNTFVKTLEHLDNLKRKKIEETVKTLPNFSIASGSTHSTIETNKQTGPMENKFLLKKSSVLPSKRVASSPLRNDNKSKVNPIGSVASASKPSMVAANNKSRVLLTSKSLATPKNVVANSTDKNEKLIEEYKYRLQKLQNDEMIWTKERQSLLEKMNNTENYKIEMIKENEMLREQLKEAQSKLNEKNIQLRSKEIDVNKLSDRVLSLENELRNMEIELDRNKKRNDTNLQSMGTISSYSIPSSTVSSNYGVKSLSSALPFKEEEDVRRKEDVNYERRSSESIGDLPHRVNSLNIRPYRKNGTGVSSVSDDLDIDFNDSFASEESYKRAAAVTSTLKARIEKMKAKSRREGTTRT | – | 1.7 | – | –
3 | Stu2(TOG1-TOG2*)-eGFP (R519A) (natural protein, S. cerevisiae, UniProt P46675 1-888, looked up, Stu2, S. cerevisiae, fully dimeric (888) background; also called TOG2* (R519A); source: E. coli Arctic Express, purified (His60 Superflow, Strep-Tactin); not shown: eGFP, C-terminal, kept) MSGEEEVDYTTLPLEERLTYKLWKARLEAYKELNQLFRNSVGDISRDDNIQIYWRDPTLFAQYITDSNVVAQEQAIVALNSLIDAFASSSLKNAHNITLISTWTPLLVEKGLTSSRATTKTQSMSCILSLCGLDTSITQSVELVIPFFEKKLPKLIAAAANCVYELMAAFGLTNVNVQTFLPELLKHVPQLAGHGDRNVRSQTMNLIVEIYKVTGNNSDLLEEILFKKLKPIQVKDLHKLFAKVGDEPSSSKMLFEWEKRELEKKRSQEEEARKRKSILSNDEGEYQIDKDGDTLMGMETDMPPSKQQSGVQIDTFSMLPEETILDKLPKDFQERITSSKWKDRVEALEEFWDSVLSQTKKLKSTSQNYSNLLGIYGHIIQKDANIQAVALAAQSVELICDKLKTPGFSKDYVSLVFTPLLDRTKEKKPSVIEAIRKALLTICKYYDPLASSGRNEDMLKDILEHMKHKTPQIRMECTQLFNASMKEEKDGYSTLQRYLKDEVVPIVIQIVNDTQPAIATIGFESFAILIKIFGMNTFVKTLEHLDNLKRKKIEETVKTLPNFSIASGSTHSTIETNKQTGPMENKFLLKKSSVLPSKRVASSPLRNDNKSKVNPIGSVASASKPSMVAANNKSRVLLTSKSLATPKNVVANSTDKNEKLIEEYKYRLQKLQNDEMIWTKERQSLLEKMNNTENYKIEMIKENEMLREQLKEAQSKLNEKNIQLRSKEIDVNKLSDRVLSLENELRNMEIELDRNKKRNDTNLQSMGTISSYSIPSSTVSSNYGVKSLSSALPFKEEEDVRRKEDVNYERRSSESIGDLPHRVNSLNIRPYRKNGTGVSSVSDDLDIDFNDSFASEESYKRAAAVTSTLKARIEKMKAKSRREGTTRT | – | 4 | 0.5 relative to wild type | –

Other lines, results leading:

Row | relative amount of polymerase on the microtubule end (wild type = one) (relative to wild type) [1] | characteristic residence time on the growing microtubule end [2] [s] | relative amount of polymerase on the microtubule end (wild type = one) [3] | binding result [4] | Molecule
4 | – | 3.9 | 0.5 relative to wild type | – | Stu2(TOG2-TOG2*)-eGFP (other) MSGEEEVDYTTEETILDKLPKDFQERITSSKWKDRVEALEEFWDSVLSQTKKLKSTSQNYSNLLGIYGHIIQKDANIQAVALAAQSVELICDKLKTPGFSKDYVSLVFTPLLDRTKEKKPSVIEAIRKALLTICKYYDPLASSGRNEDMLKDILEHMKHKTPQIRMECTQLFNASMKEEKDGYSTLQRYLKDEVVPIVIQIVNDTQPAIRTIGFESFAILIKIFGMNTFVKTLEHLDNLKRKKIEETVKTDEPSSSKMLFEWEKRELEKKRSQEEEARKRKSILSNDEGEYQIDKDGDTLMGMETDMPPSKQQSGVQIDTFSMLPEETILDKLPKDFQERITSSKWKDRVEALEEFWDSVLSQTKKLKSTSQNYSNLLGIYGHIIQKDANIQAVALAAQSVELICDKLKTPGFSKDYVSLVFTPLLDRTKEKKPSVIEAIRKALLTICKYYDPLASSGRNEDMLKDILEHMKHKTPQIRMECTQLFNASMKEEKDGYSTLQRYLKDEVVPIVIQIVNDTQPAIATIGFESFAILIKIFGMNTFVKTLEHLDNLKRKKIEETVKTLPNFSIASGSTHSTIETNKQTGPMENKFLLKKSSVLPSKRVASSPLRNDNKSKVNPIGSVASASKPSMVAANNKSRVLLTSKSLATPKNVVANSTDKNEKLIEEYKYRLQKLQNDEMIWTKERQSLLEKMNNTENYKIEMIKENEMLREQLKEAQSKLNEKNIQLRSKEIDVNKLSDRVLSLENELRNMEIELDRNKKRNDTNLQSMGTISSYSIPSSTVSSNYGVKSLSSALPFKEEEDVRRKEDVNYERRSSESIGDLPHRVNSLNIRPYRKNGTGVSSVSDDLDIDFNDSFASEESYKRAAAVTSTLKARIEKMKAKSRREGTTRT
5 | – | – | – | binds | 'doubly dead' Stu2(TOG1*-TOG2*)-eGFP (natural protein, S. cerevisiae, UniProt P46675 1-888, looked up, Stu2, S. cerevisiae, fully dimeric (888) background; also called double dead Stu2; source: E. coli Arctic Express, purified (His60 Superflow, Strep-Tactin); not shown: eGFP, C-terminal, kept) MSGEEEVDYTTLPLEERLTYKLWKARLEAYKELNQLFRNSVGDISRDDNIQIYWRDPTLFAQYITDSNVVAQEQAIVALNSLIDAFASSSLKNAHNITLISTWTPLLVEKGLTSSRATTKTQSMSCILSLCGLDTSITQSVELVIPFFEKKLPKLIAAAANCVYELMAAFGLTNVNVQTFLPELLKHVPQLAGHGDRNVASQTMNLIVEIYKVTGNNSDLLEEILFKKLKPIQVKDLHKLFAKVGDEPSSSKMLFEWEKRELEKKRSQEEEARKRKSILSNDEGEYQIDKDGDTLMGMETDMPPSKQQSGVQIDTFSMLPEETILDKLPKDFQERITSSKWKDRVEALEEFWDSVLSQTKKLKSTSQNYSNLLGIYGHIIQKDANIQAVALAAQSVELICDKLKTPGFSKDYVSLVFTPLLDRTKEKKPSVIEAIRKALLTICKYYDPLASSGRNEDMLKDILEHMKHKTPQIRMECTQLFNASMKEEKDGYSTLQRYLKDEVVPIVIQIVNDTQPAIATIGFESFAILIKIFGMNTFVKTLEHLDNLKRKKIEETVKTLPNFSIASGSTHSTIETNKQTGPMENKFLLKKSSVLPSKRVASSPLRNDNKSKVNPIGSVASASKPSMVAANNKSRVLLTSKSLATPKNVVANSTDKNEKLIEEYKYRLQKLQNDEMIWTKERQSLLEKMNNTENYKIEMIKENEMLREQLKEAQSKLNEKNIQLRSKEIDVNKLSDRVLSLENELRNMEIELDRNKKRNDTNLQSMGTISSYSIPSSTVSSNYGVKSLSSALPFKEEEDVRRKEDVNYERRSSESIGDLPHRVNSLNIRPYRKNGTGVSSVSDDLDIDFNDSFASEESYKRAAAVTSTLKARIEKMKAKSRREGTTRT
